Results: publication PMC4616025, “Identification of a phosphinothricin-resistant mutant of rice glutamine synthetase using DNA shuffling” (Scientific Reports, 2015)
Changes are numbered by the printed parent chain. Numbers in names are those of the source.

Substrate: N[C@@H](CCC(=O)O)C(=O)O
Test: purified protein
Assay type: biochemical, Oryza sativa
Conditions: general assay: 5 mM ATP, 30 mM hydroxylamine, 50 mM MgCl2, 100 mM Tris-HCl pH 7.5, 37 °C, Km measured as in a cited method

B1: OsGS1S (Oryza sativa Japonica Group) (protein)
chain: MASLTDLVNLNLSDTTEKIIAEYIWIGGSGMDLRSKARTLSGPVTDPSKLPKWNYDGSSTGQAPGEDSEVILYPQAIFKDPFRKGNNILVMCDCYTPAGEPIPTNKRHNAAKIFSSPEVASEEPWYGIEQEYTLLQKDINWPLGWPVGGFPGPQGPYYCGIGADKSFGRDIVDSHYKACLYAGINISGINGEVMPGQWEFQVGPSVGISAGDQVWVARYILERITEIAGVVVSFDPKPIPGDWNGAGAHTNYSTKSMRNDGGYEIIKSAIEKLKLRHKEHISAYGEGNERRLTGRHETADINTFSWGVANRGASVRVGRETEQNGKGYFEDRRPASNMDPYIVTSMIAETTIIWKP
notes: full-length, plant-codon-optimized synthetic gene (PTDS), vector pYM4087 with six-histidine tag, expressed in E. coli BL21(DE3), Ni-NTA purified; forward primer atggcttctctcaccga
Which Km does the source give for B1 here?
The Km was 1.22 ± 0.011 mM.

B2: OsGS1S (Oryza sativa Japonica Group; A63E/R295K/T293A/V193A) (protein)
chain: B1 chain with A63E, V193A, T293A, R295K
notes: as for B1
Which Km (stated gain) does the source give for B2 here?
The Km was 7.99 ± 0.021 mM.

B3: OsGS1S (Oryza sativa Japonica Group; R295K) (protein)
chain: B1 chain with R295K
notes: as for B1
B3 was tested. Which Km (stated gain) did it give?
Its Km is 8.04 ± 0.015 mM.
